Laboratory results from paper PMC7948760, “Regulation of factor V and factor V-short by TFPIα: Relationship between B-domain proteolysis and binding” (The Journal of Biological Chemistry, 2021).
Ends that are not written are not given here.

T1: FV-short-RQ∗ (FV-short-RQ precleaved at Arg709 with thrombin) (human, UniProt P12259 29-737; P12259 738-2224, Δ756–1458 | Arg^1545 replaced with Gln)
T1 construct: coagulation factor V heavy chain (HC), released by cleavage at Arg709; coagulation factor V, rest of the shortened B-domain with AR2 joined to the light chain; also called FV-short cleaved at Arg709; source: FV-short-RQ (BHK cells, purified), 300 nM incubated with 2 nM thrombin 30 min at 37 °C, quenched with hirudin
T1 sequence (looked up) 1: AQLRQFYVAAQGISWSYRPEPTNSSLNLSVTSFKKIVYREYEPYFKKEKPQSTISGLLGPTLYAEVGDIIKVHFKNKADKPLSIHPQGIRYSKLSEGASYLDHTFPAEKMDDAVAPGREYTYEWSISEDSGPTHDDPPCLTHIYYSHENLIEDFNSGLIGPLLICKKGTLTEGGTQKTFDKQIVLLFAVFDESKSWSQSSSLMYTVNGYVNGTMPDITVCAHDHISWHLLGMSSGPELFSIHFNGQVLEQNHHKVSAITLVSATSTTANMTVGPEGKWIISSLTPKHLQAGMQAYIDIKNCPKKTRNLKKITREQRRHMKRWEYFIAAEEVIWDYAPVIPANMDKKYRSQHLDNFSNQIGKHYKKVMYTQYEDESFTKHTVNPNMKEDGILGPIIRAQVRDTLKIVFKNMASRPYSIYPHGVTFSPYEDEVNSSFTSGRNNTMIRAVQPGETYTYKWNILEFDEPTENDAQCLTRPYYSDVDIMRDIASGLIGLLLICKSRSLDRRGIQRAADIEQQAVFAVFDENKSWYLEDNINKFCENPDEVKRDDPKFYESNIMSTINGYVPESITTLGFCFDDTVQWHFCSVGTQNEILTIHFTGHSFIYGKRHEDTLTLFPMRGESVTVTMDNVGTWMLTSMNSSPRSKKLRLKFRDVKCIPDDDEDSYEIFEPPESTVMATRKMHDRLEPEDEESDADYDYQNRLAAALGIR
T1 sequence (looked up) 2: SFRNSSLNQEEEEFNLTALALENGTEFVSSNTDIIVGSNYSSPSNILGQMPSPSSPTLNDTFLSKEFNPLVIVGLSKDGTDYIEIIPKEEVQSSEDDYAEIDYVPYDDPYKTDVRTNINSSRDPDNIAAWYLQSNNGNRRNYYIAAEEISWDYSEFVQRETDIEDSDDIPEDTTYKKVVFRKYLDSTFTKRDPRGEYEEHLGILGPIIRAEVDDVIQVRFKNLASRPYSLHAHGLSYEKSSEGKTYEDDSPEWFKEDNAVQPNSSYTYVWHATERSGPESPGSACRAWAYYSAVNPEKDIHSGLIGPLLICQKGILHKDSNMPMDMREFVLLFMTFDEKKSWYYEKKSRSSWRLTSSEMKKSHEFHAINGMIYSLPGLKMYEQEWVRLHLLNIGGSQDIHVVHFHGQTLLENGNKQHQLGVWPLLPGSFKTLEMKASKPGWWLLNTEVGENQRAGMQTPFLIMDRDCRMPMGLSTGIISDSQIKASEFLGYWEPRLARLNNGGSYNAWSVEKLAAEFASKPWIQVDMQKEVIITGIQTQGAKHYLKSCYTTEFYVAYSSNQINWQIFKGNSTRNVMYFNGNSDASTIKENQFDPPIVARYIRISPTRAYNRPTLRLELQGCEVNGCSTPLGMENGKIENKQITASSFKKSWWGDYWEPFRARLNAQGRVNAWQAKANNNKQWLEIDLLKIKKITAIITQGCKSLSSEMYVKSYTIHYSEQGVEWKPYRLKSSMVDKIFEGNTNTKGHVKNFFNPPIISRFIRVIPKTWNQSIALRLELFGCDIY

T2: FV-short-QR∗ (FV-short-QR precleaved at Arg1545 with RVV-V) (human, UniProt P12259 29-1573; P12259 1574-2224, Δ756–1458 | Arg^709 replaced with Gln)
T2 construct: coagulation factor V heavy chain joined to the shortened B-domain with AR2; coagulation factor V light chain (LC), released by cleavage at Arg1545; also called FV-short cleaved at Arg1545; source: FV-short-QR (BHK cells, purified), 300 nM incubated with 2 nM RVV-V 30 min at 37 °C
T2 sequence (looked up) 1: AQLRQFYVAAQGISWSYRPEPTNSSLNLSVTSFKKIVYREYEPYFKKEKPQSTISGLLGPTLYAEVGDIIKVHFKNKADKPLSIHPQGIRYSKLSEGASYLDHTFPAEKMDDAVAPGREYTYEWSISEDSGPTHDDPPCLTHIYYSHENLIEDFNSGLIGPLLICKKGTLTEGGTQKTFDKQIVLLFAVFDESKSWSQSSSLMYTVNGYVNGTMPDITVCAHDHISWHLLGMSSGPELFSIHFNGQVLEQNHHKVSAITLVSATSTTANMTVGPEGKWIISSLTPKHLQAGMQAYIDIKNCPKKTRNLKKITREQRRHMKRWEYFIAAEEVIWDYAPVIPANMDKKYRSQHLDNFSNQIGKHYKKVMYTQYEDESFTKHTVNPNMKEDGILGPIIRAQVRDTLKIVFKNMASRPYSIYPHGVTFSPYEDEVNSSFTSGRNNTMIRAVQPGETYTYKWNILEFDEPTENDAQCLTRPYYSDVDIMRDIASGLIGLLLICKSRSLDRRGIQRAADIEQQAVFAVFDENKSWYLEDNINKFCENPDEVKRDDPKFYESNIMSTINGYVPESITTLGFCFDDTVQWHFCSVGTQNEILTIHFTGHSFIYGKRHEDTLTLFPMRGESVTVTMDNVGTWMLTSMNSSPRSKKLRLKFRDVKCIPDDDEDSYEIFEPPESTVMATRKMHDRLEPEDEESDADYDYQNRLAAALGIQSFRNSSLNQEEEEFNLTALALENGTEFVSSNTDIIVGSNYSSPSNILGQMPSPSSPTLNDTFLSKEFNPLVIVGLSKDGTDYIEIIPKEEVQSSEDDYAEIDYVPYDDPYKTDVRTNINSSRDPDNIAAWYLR
T2 sequence (looked up) 2: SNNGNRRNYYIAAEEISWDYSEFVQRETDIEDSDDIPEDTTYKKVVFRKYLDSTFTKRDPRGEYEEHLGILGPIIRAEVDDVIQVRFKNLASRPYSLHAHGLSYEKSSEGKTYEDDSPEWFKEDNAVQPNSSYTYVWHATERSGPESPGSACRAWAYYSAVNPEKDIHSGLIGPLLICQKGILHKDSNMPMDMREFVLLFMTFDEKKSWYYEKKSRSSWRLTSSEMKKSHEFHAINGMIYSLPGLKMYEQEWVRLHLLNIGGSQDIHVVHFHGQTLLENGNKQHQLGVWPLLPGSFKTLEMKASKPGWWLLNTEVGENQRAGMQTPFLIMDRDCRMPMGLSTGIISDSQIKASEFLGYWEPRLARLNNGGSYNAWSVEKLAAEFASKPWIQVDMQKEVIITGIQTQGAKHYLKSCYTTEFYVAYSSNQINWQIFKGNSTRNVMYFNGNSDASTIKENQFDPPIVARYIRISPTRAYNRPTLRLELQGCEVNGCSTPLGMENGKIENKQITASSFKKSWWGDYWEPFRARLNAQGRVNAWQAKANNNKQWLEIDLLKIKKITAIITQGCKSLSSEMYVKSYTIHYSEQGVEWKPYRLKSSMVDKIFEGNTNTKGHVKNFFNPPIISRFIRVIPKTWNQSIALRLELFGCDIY

T3: activated factor V (FVa) (human, UniProt P12259 29-737; P12259 1574-2224)
T3 construct: coagulation factor V heavy chain (HC; domains A1-A2); coagulation factor V light chain (LC; domains A3-C1-C2); source: prepared by treatment of FV-short (BHK cells) with thrombin, purified
T3 sequence (looked up) 1: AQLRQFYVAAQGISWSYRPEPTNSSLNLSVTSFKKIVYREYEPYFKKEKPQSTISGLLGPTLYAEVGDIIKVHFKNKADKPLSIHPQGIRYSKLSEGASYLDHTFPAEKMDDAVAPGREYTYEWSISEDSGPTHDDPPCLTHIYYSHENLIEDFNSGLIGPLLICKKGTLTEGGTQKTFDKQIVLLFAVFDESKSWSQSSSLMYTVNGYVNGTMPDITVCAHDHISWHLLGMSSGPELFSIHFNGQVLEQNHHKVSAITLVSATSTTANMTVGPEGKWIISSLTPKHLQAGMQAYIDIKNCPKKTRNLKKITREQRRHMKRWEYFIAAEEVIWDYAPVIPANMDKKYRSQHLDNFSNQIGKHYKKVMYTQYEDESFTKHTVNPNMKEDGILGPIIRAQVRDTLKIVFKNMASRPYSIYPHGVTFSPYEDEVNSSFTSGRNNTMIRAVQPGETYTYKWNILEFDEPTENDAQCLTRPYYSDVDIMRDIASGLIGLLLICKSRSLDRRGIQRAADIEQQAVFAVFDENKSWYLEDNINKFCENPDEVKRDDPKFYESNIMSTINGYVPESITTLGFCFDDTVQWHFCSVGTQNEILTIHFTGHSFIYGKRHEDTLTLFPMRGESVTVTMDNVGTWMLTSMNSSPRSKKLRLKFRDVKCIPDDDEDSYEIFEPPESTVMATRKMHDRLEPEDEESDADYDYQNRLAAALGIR
T3 sequence (looked up) 2: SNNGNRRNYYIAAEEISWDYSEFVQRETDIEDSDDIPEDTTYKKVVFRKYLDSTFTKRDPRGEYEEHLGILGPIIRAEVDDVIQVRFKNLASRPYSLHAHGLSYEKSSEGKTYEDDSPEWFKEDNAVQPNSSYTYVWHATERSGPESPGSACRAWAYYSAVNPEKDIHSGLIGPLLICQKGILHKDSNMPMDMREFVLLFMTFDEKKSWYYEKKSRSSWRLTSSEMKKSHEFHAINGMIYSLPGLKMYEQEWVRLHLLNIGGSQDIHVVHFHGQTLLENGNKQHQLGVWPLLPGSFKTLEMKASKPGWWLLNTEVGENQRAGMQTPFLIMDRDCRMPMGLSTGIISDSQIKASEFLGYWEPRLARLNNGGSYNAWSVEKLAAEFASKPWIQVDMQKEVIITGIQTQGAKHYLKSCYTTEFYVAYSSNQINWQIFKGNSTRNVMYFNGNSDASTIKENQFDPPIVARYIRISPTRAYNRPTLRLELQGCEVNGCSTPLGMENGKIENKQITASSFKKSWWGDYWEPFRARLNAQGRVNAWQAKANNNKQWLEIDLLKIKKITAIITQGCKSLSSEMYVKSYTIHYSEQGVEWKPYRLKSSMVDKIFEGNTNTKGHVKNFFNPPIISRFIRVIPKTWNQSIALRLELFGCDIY


What was measured:
Settings in all cases: both partners purified
[1] = molecular target: T4, FV-short-QQ (FV-short with Arg709 and Arg1545 replaced with Gln) (human); experiment: fluorescence polarisation; competition: unlabeled TFPIα-BR (0–2 μM) or TFPIα (0–1 μM) titrated into 25 nM OG488-TFPIα-BR, 20 nM FV-short-QQ and 50 μM PCPS, assay buffer, 25 °C; stoichiometry of 1 assumed
T4 construct: coagulation factor V, FV-short with both thrombin cleavage sites changed to Gln, not cleaved by thrombin; source: BHK cells, purified

[2] = molecular target: T5, FV-short (factor V isoform with B-domain residues 756 to 1458 deleted) (human); experiment: inhibition of prothrombinase (prothrombin activation assay); 0.1 nM cofactor species, 50 μM PCPS, 1.4 μM prothrombin, 3 μM DAPA, TFPIα-BR 0–7 μM, started with 2 nM FXa, assay buffer, 25 °C; Ki from the equation for competitive inhibition
T5 construct: coagulation factor V, splicing isoform FV-short, single chain, lacks the BR and retains AR2; source: BHK cells, purified

[3] = molecular target: T4, FV-short-QQ (FV-short with Arg709 and …); experiment: as above
[4] = molecular target: T1, FV-short-RQ∗ (FV-short-RQ precleaved at …); experiment: as above
[5] = molecular target: T5, FV-short (factor V isoform with …); experiment: as above; remark: listed apart in the source
[6] = molecular target: T4, FV-short-QQ (FV-short with Arg709 and …); experiment: as above; remark: listed apart in the source
[7] = molecular target: T2, FV-short-QR∗ (FV-short-QR precleaved at …); experiment: as above
activated factor V (FVa) = molecular target: T3, activated factor V (FVa); experiment: as above
[8] = molecular target: T1, FV-short-RQ∗ (FV-short-RQ precleaved at …); experiment: as above; remark: listed apart in the source
[9] = molecular target: T5, FV-short (factor V isoform with …); experiment: fluorescence polarisation; steady-state anisotropy; FV species (0–100 nM) titrated into 20 nM OG488-TFPIα-BR and 50 μM PCPS, assay buffer (20 mM HEPES, 0.15 M NaCl, 5 mM CaCl2, 0.1% PEG 8000, pH 7.4), 25 °C; fit to independent, noninteracting sites
[10] = molecular target: T1, FV-short-RQ∗ (FV-short-RQ precleaved at …); experiment: as above

| Binder | Kd [1] | Ki [2] | Ki [3] | Ki [4] | Ki [5] | Ki [6] | Ki [7] | Ki (activated factor V (FVa)) | Ki [8] | Kd [9] | Kd [10] |
| --- | --- | --- | --- | --- | --- | --- | --- | --- | --- | --- | --- |
| KKGFIQRISKGGLIKTKRKRKKQRVKIAYEEIFVKNM (domain or fragment, limits not printed (refs 17, 18); taken as the whole C-terminal tail after Kunitz 3 (mature 240-276); expressed in E. coli, unglycosylated) [TFPIα-BR, fragment containing the BR sequence of TFPIα] | 2.25 ± 0.2 nM | 19.8 nM | 21.5 nM | 86.1 nM | 23.6 nM | 23.4 nM | > 7 µM | > 7 µM | 83.9 nM |  |  |
| {C(Oregon Green488 maleimide)}-KKGFIQRISKGGLIKTKRKRKKQRVKIAYEEIFVKNM (domain or fragment) [OG488-TFPIα-BR, TFPIα-BR modified with Oregon Green488 maleimide] |  |  |  |  |  |  |  |  |  | 0.71 ± 0.11 nM | 2.16 ± 0.25 nM |
